Oligonucleotides are written 5' to 3', each unit as a sugar letter and its base; * is a phosphorothioate linkage, no mark a phosphodiester; rarer units and linkages stand in square brackets, end groups in braces. Plain capitals give the bases only. r = 2'-OH (RNA); f = 2'-fluoro
Tests used:
chymase (recombinant) [1] = target: T1, chymase (recombinant) (UniProt P23946 P23946:22-247); assay: inhibition; SPR ++; conditions: tags: SIGMA, expressed in yeast
T1 sequence: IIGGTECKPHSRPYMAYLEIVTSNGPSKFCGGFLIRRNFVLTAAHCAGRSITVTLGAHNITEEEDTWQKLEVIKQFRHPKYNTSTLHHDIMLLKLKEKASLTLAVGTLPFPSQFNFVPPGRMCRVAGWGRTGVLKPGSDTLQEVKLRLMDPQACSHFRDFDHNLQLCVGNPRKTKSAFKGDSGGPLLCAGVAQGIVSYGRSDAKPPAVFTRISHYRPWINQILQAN
Experimental: (§1) By detecting the fluorescence of this AMC, the enzyme activity of chymase can be determined. The assay was performed using a 96-well plate (F16 Black Maxisorp Fluoronunc, manufactured by Nunc), with a reaction mixture volume of 100 μL, in solution C as a buffer solution. First, each nucleic acid was serially diluted to 0.0027-2 μM concentrations in solution C to obtain 50 μL solutions. After 10 μL of the 1 mM substrate prepared in solution C was added thereto, the plate was set to the microplate reader SpectraMax190 (manufactured by Molecular Devices Corporation), and incubated at 37° C. for 5 minutes. Separately, 0.05 μg (or 0.005 μg) of chymase (recombinant, manufactured by SIGMA) was diluted in solution C to obtain a 40 μL chymase solution, and incubated at 37° C. for 5 minutes. The chymase solution was added to the mixture of the nucleic acid and substrate to initiate an enzyme reaction. The final chymase concentration in the reaction mixture was 16.7 nM (or 1.67 nM), the final substrate concentration being 100 μM. The plate containing the reaction mixture was set to the microplate reader SpectraMax190 (manufactured by Molecular Devices Corporation), and examined for time-dependent changes in the fluorescence intensity at 37° C. for 5 minutes (or 30 minutes) (excitation wavelength 380 nm, detection wavelength 460 nm). A linear approximation of the increase in the fluorescence of the AMC released from the substrate by chymase activity was generated, and its slope was taken as the initial velocity […]. For control, samples were treated and analyzed in the same manner in two cases: use of a 30N or 40N (a nucleotide of 30 or 40 consecutive bases represented by N; N is A, G, C or T) nucleic acid pool (negative control), and use of chymostatin, a known chymotrypsin-like serine protease inhibitor (positive control). Taking the initial reaction velocity without the nucleic acid and inhibitor (V_0) as a 100% enzyme activity, the inhibitory rate of each test substance was calculated using the following equation: […]
All nucleic acids of SEQ ID NO: 58-68 were prepared by chemical synthesis. Whether these nucleic acids are bound to chymase was assessed by surface plasmon resonance method in the same manner as in Example 4. The inhibitory activity on chymase was measured in the same manner as in Example 3.

chymase (recombinant) [2] = target: T1, chymase (recombinant); assay: inhibition; SPR ++; conditions: tags: SIGMA, expressed in yeast; remark: listed apart in the source
Experimental: as §1, with “Here, Suc is a protecting succinyl group, and MCA is a 4-methylcoumaryl-7-amide group; upon cleavage of the C-terminal side of phenylalanine, AMC (7-amino-4-methyl-coumarine) is released. By” for “By”
Chymase inhibitory activity was determined in the same manner as Example 3.

chymase (recombinant) [3] = target: T1, chymase (recombinant); assay: inhibition; SPR +; conditions: tags: SIGMA, expressed in yeast
Experimental: as §1, with “Here, Suc is a protecting succinyl group, and MCA is a 4-methylcoumaryl-7-amide group; upon cleavage of the C-terminal side of phenylalanine, AMC (7-amino-4-methyl-coumarine) is released. By” for “By”

chymase [4] = target: T2, chymase (Homo sapiens, UniProt P23946 P23946:22-247); assay: SPR; stronger than 40N; solution A; conditions: tags: human skin mast cell, Calbiochem
T2 sequence: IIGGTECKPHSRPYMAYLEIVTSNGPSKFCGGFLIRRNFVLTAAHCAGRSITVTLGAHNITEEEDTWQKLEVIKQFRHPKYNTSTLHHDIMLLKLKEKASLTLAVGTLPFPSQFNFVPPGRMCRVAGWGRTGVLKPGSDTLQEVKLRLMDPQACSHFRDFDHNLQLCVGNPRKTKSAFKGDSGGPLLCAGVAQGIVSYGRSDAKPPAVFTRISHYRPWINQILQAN
Experimental: (§2) The binding activities against chymase of the nucleic acids shown by SEQ ID NO: 4-20 and 22-34 were determined by the surface plasmon resonance method using Biacore T100 (manufactured by GE Healthcare). The sensor chip used was the SA chip, which had streptavidin immobilized thereon. Bound thereto was about 1500 RU of a 16-nucleotide Poly dT with biotin bound to the 5' end thereof. […] 20 μL of chymase for analyte, prepared at 0.2 μM, was injected. Solution A was used as a running buffer.

chymase [5] = target: T3, chymase (Homo sapiens, UniProt P23946); assay: Surface plasmon resonance (Biacore T100), aptamer immobilized on SA chip, chymase injected as analyte; type: binding; conditions: Table 1; about 1000 RU nucleic acid immobilized, chymase 0.2 μM analyte, running buffer solution A; compared with 40N
T3 sequence (P23946 22-247): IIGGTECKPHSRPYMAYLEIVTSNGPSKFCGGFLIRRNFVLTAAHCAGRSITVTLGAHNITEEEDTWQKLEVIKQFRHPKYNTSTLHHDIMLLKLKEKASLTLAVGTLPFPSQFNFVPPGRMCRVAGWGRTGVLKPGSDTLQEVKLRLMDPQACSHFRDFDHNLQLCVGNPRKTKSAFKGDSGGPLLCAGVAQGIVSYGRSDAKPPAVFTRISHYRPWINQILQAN
Experimental: Binding strength is measured using Biacore T100 (manufactured by GE Healthcare). In a method of measurement, the aptamer is first immobilized onto a sensor chip, the amount immobilized being about 1000 RU. 20 μL of a chymase solution for analyte, prepared at 0.2 μM, is injected, and the binding of chymase to the aptamer is detected. An RNA comprising a random nucleotide sequence of 30 or 40 nucleotides is used as a negative control.
as §2, with “5′” for “5'”
The binding activities against chymase of the nucleic acids shown by SEQ ID NO: 38-48 were evaluated by the surface plasmon resonance method. In the evaluations for SEQ ID NO: 38-48, measurements were taken in the same manner as Example 1. Solution C was used as a running buffer.

B1: SEQ 64 (ssRNA)
RNA: GUCACAGAUAGAGUUAAAGUGAC
modifications: 2'-F pyrimidines
In the case of B1, the IC50 (chymase (recombinant) [1]) is reported as 20 nM.

B2: SEQ 50 (ssRNA)
RNA: GGCAUUCUACAGAUAGAGAUAAAGUAGAAUUUAAC
modifications: 2'-F pyrimidines
In the case of B2, the IC50 (chymase (recombinant) [2]) is reported as 138 nM.

B3: SEQ 54 (ssRNA)
RNA: UAACUAUGGUUAGAUAGAGUUAAAAACCAUAGAAGA
modifications: 2'-F pyrimidines
B3 gave an IC50 (chymase (recombinant) [2]) of 51 nM.

B4: SEQ 31 (ssRNA)
RNA: GGGACGGUAGGAAUUCGUCCCUCAUGUCUAUUUUGCAGAUAGACUUAAAGCAAACAUAGAAGAGCGGCCGC
modifications: 2'-F pyrimidines
Molecule B4 has an IC50 (chymase (recombinant) [3]) of 155 nM.

B5: SEQ 62 (ssRNA)
RNA: GGGUUGGAUAGAGUUAAGAACCC
modifications: 2'-F pyrimidines
For B5, the IC50 (chymase (recombinant) [1]) was 29 nM.

B6: SEQ 33 (ssRNA)
RNA: GGGACGGUAGGAAUUCCUGUCUUUUCCCACGCAACAAAUUACAGAGCUUUGCAAAACAUAGAAGAGCGGCCGC
modifications: 2'-F pyrimidines
With B6 the IC50 (chymase (recombinant) [3]) was 145 nM.

B7: SEQ 61 (ssRNA)
RNA: GGGUUAGAUAGAUUUAAAAACCC
modifications: 2'-F pyrimidines
B7 gave an IC50 (chymase (recombinant) [1]) of 23 nM.

B8: SEQ 53 (ssRNA)
RNA: GGGUAACUAUGGUUAGAUAGAGUUAAAAACCAUAGAAGACCC
modifications: 2'-F pyrimidines
In the case of B8, the IC50 (chymase (recombinant) [2]) is reported as 66 nM.

B9: SEQ 55 (ssRNA)
RNA: CUAUGGUUAGAUAGAGUUAAAAACCAUAG
modifications: 2'-F pyrimidines
With B9 the IC50 (chymase (recombinant) [2]) was 55 nM.

B10: SEQ 63 (ssRNA)
RNA: GCUACAGAUAGAGUUAAAGUAGC
modifications: 2'-F pyrimidines
Molecule B10 has an IC50 (chymase (recombinant) [1]) of 23 nM.

B11: SEQ 59 (ssRNA)
RNA: GGGUUAGAUAGAGAUAAAAACCC
modifications: 2'-F pyrimidines
B11 gave an IC50 (chymase (recombinant) [1]) of 38 nM.

B12: SEQ 27 (ssRNA)
RNA: GGGACGGUAGGAAUUCCGUCAUCGGUUGCAAAUUGAAAAUACAAAACAAGGACAACCAUAGAAGAGCGGCCGC
modifications: 2'-F U and C
B12: binds (chymase [4]).

B13: SEQ 57 (ssRNA)
RNA: GCAUUUGAGAUAGAUUUAAACAAACGC
modifications: 2'-F pyrimidines
Molecule B13 has an IC50 (chymase (recombinant) [2]) of 99 nM.

B14: GGGACGGUAGGAAUUCGUCCUCAUGUCUAUUUUGCAGAUAGACUUAAAGCAAACAUAGAAGAGCGGCCGC (nucleic acid)
chain: rGrGrGrAfCrGrGfUrArGrGrArAfUfUfCrGfUfCfCfUfCrAfUrGfUfCfUrAfUfUfUfUrGfCrArGrAfUrArGrAfCfUfUrArArArGfCrArArAfCrAfUrArGrArArGrArGfCrGrGfCfCrGfC
In the case of B14, the “Binding activity as determined using Biacore” value (chymase [5]) is reported as “equivalent binding activity compared with 40N”.

B15: SEQ 51 (ssRNA)
RNA: CGUUACAUAAUGUAUAUACCAGGGUAACUAAACAUAGAAGAGCGG
modifications: 2'-F pyrimidines
B15 showed an IC50 (chymase (recombinant) [2]) of 24 nM.

B16: SEQ 16 (ssRNA)
RNA: GGGACGGUAGGAAUUCCCAUGACUGAAAAACGUCAGUAAAAUCCGAAAAUCAUAUCAUAGAAGAGCGGCCGC
modifications: 2'-F U and C
B16: binds (chymase [4]).

B17: SEQ 32 (ssRNA)
RNA: GGGACGGUAGGAAUUCGUCCUCAUGUCUAUUUUGCAGAUAGACUUAAAGCAAACAUAGAAGAGCGGCCGC
modifications: 2'-F pyrimidines
With B17 the IC50 (chymase (recombinant) [3]) was 235 nM.

B18: SEQ 29 (ssRNA)
RNA: GGGACGGUAGGAAUUCACGACCGCCCAAAAAAUGGUGACAUUUUAGAAACACCGAACAUAGAAGAGCGGCCGC
modifications: 2'-F U and C
B18: binds (chymase [4]).

B19: GGGACGGUAGGAAUUCUGCCGCAACCCAAUGAAAACGAAGAUAGAGAUAAAUCGAACAUAGAAGAGCGGCCGC (nucleic acid)
chain: rGrGrGrAfCrGrGfUrArGrGrArAfUfUfCfUrGfCfCrGfCrArAfCfCfCrArAfUrGrArArArAfCrGrArArGrAfUrArGrArGrAfUrArArAfUfCrGrArAfCrAfUrArGrArArGrArGfCrGrGfCfCrGfC
modifications: aptamer
In the case of B19, the “Binding activity as determined using Biacore” value (chymase [5]) is reported as “equivalent binding activity compared with 40N”.

B20: SEQ 28 (ssRNA)
RNA: GGGACGGUAGGAAUUCAAUUUCUUUCUAUUCUCACCUGAGUAUAUCAGGCACAGUACAUAGAAGAGCGGCCGC
modifications: 2'-F pyrimidines
For B20, the IC50 (chymase (recombinant) [3]) was 45 nM.

B21: SEQ 20 (ssRNA)
RNA: GGGACGGUAGGAAUUCAAAAUCAGCUGAUUUGUAAUUUUUUUACACAGGCAAAACACAUAGAAGAGCGGCCGC
modifications: 2'-F pyrimidines
With B21 the IC50 (chymase (recombinant) [3]) was 282 nM.

B22: SEQ 22 (ssRNA)
RNA: GGGACGGUAGGAAUUCCCGACACAAAAUGUGUGAUUAAUUCCGAACAACAAAGUAACAUAGAAGAGCGGCCGC
modifications: 2'-F pyrimidines
Work on B22 yielded an IC50 (chymase (recombinant) [3]) of 105 nM.

B23: SEQ 60 (ssRNA)
RNA: GGGUUAGAUAGAGCUAAAAACCC
modifications: 2'-F pyrimidines
Molecule B23 has an IC50 (chymase (recombinant) [1]) of 26 nM.

B24: SEQ 65 (ssRNA)
RNA: GGCAGAUAGAGUUAAAGCC
modifications: 2'-F pyrimidines
In the case of B24, the IC50 (chymase (recombinant) [1]) is reported as 56 nM.

B25: SEQ 49 (ssRNA)
RNA: GGUUCUACAGAUAGAGAUAAAGUAGAACC
modifications: 2'-F pyrimidines
With B25 the IC50 (chymase (recombinant) [2]) was 117 nM.

B26: SEQ 34 (ssRNA)
RNA: GGGACGGUAGGAAUUCUGCCGCAACCCAAUGAAAACGAAGAUAGAGAUAAAUCGAACAUAGAAGAGCGGCCGC
modifications: 2'-F pyrimidines
Molecule B26 has an IC50 (chymase (recombinant) [3]) of 137 nM.
